molecular target: Tyrosine-protein kinase transmembrane receptor ROR1 (human, UniProt Q01973 30-937); assay: cell-based or functional assay
Sequence (Q01973 30-937): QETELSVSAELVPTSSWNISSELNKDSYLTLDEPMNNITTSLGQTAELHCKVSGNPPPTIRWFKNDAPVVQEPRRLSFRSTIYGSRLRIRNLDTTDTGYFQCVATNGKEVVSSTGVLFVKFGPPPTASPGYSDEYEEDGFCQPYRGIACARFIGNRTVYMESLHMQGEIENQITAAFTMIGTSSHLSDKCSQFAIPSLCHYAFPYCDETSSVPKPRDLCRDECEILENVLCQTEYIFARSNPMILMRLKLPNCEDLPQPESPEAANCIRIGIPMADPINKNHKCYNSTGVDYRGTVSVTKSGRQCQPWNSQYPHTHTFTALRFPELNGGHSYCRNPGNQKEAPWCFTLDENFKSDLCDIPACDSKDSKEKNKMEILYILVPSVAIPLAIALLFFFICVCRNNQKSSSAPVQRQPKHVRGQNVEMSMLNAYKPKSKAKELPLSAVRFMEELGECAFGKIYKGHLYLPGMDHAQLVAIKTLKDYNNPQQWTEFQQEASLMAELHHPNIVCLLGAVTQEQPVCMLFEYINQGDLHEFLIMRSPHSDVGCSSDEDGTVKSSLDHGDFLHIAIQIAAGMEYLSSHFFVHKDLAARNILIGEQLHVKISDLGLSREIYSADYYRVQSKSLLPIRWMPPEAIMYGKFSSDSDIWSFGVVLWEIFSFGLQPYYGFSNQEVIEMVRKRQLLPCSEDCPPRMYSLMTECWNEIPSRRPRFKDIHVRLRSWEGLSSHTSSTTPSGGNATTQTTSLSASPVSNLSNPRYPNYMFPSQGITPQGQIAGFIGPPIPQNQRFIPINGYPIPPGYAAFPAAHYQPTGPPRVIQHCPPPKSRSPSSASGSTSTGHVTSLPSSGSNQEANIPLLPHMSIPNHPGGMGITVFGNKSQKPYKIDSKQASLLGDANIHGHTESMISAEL

Binder | degranulation of scCAR-modified T cells (primary screening) | degranulation of scCAR-modified T cells (secondary screening) | production of IFNγ by scCAR-modified T cells | cytotoxic activity of scCAR-modified T cells, specific lysis of PC-3 cells
D10-v3 scCAR (other) QVQLKESGPGLVAPSQTLSITCTVSGFSLTSYGVHWVRQPPGKGLEWLGVIWAGGFTNYNSALKSRLSISKDNSKSQVLLKMTSLQTDDTAMYYCARRGSSYSMDYWGQGTSVTVSSGGGGSGGGGSGGGGSEIVLSQSPAITAASLGQKVTITCSASSNVSYIHWYQQRSGTSPRPWIYEISKLASGVPVRFSGSGSGTSYSLTISSMEAEDAAIYYCQQWNYPLITFGSGTKLEIQTTTPAPRPPTPAPTIASQPLSLRPEACRPAAGGAVHTRGLDFACDIYIWAPLAGTCGVLLLSLVITLYCKRGRKKLLYIFKQPFMRPVQTTQEEDGCSCRFPEEEEGGCELRVKFSRSADAPAYQQGQNQLYNELNLGRREEYDVLDKRRGRDPEMGGKPRRKNPQEGLYNELQKDKMAEAYSEIGMKGERRRGKGHDGLYQGLSTATKDTYDALHMQALPPR | ≥ 20% | ≥ 20% | ≥ 1500 pg/mL | > 20%
H10-v3 scCAR (other) EVKLVESGGGLVKPGGSLKLSCAASGFTFSSYAMSWVRQTPEKRLEWVASISTGASAYFPDSVKGRFTISRDNARNILYLQMSSLRSEDTAMYYCARITTSTWYFDVWGAGTTVTVSSGGGGSGGGGSGGGGSDIKMTQSPSSMYASLGERVTITCKASQDINSYLSWFQQKPGKSPKTLIYRANRLVDGVPSRFSGSGSGQDYSLTISSLEYEDMGIYYCLQYDEFPYTFGGGTKLEIKTTTPAPRPPTPAPTIASQPLSLRPEACRPAAGGAVHTRGLDFACDIYIWAPLAGTCGVLLLSLVITLYCKRGRKKLLYIFKQPFMRPVQTTQEEDGCSCRFPEEEEGGCELRVKFSRSADAPAYQQGQNQLYNELNLGRREEYDVLDKRRGRDPEMGGKPRRKNPQEGLYNELQKDKMAEAYSEIGMKGERRRGKGHDGLYQGLSTATKDTYDALHMQALPPR | ≥ 20% | ≥ 20% | ≥ 1500 pg/mL | > 20%
H10-v1 scCAR (other) EVKLVESGGGLVKPGGSLKLSCAASGFTFSSYAMSWVRQTPEKRLEWVASISTGASAYFPDSVKGRFTISRDNARNILYLQMSSLRSEDTAMYYCARITTSTWYFDVWGAGTTVTVSSGGGGSGGGGSGGGGSDIKMTQSPSSMYASLGERVTITCKASQDINSYLSWFQQKPGKSPKTLIYRANRLVDGVPSRFSGSGSGQDYSLTISSLEYEDMGIYYCLQYDEFPYTFGGGTKLEIKGLAVSTISSFFPPGYQIYIWAPLAGTCGVLLLSLVITLYCKRGRKKLLYIFKQPFMRPVQTTQEEDGCSCRFPEEEEGGCELRVKFSRSADAPAYQQGQNQLYNELNLGRREEYDVLDKRRGRDPEMGGKPRRKNPQEGLYNELQKDKMAEAYSEIGMKGERRRGKGHDGLYQGLSTATKDTYDALHMQALPPR | ≥ 20% | – | – | –
D10-v1 scCAR (other) QVQLKESGPGLVAPSQTLSITCTVSGFSLTSYGVHWVRQPPGKGLEWLGVIWAGGFTNYNSALKSRLSISKDNSKSQVLLKMTSLQTDDTAMYYCARRGSSYSMDYWGQGTSVTVSSGGGGSGGGGSGGGGSEIVLSQSPAITAASLGQKVTITCSASSNVSYIHWYQQRSGTSPRPWIYEISKLASGVPVRFSGSGSGTSYSLTISSMEAEDAAIYYCQQWNYPLITFGSGTKLEIQGLAVSTISSFFPPGYQIYIWAPLAGTCGVLLLSLVITLYCKRGRKKLLYIFKQPFMRPVQTTQEEDGCSCRFPEEEEGGCELRVKFSRSADAPAYQQGQNQLYNELNLGRREEYDVLDKRRGRDPEMGGKPRRKNPQEGLYNELQKDKMAEAYSEIGMKGERRRGKGHDGLYQGLSTATKDTYDALHMQALPPR | ≥ 20% | – | – | –

Further lines, with some results ahead:

degranulation of scCAR-modified T cells (primary screening) | degranulation of scCAR-modified T cells (secondary screening) | production of IFNγ by scCAR-modified T cells | Binder | cytotoxic activity of scCAR-modified T cells, specific lysis of PC-3 cells
≥ 20% | – | – | H10-v5 scCAR (other) EVKLVESGGGLVKPGGSLKLSCAASGFTFSSYAMSWVRQTPEKRLEWVASISTGASAYFPDSVKGRFTISRDNARNILYLQMSSLRSEDTAMYYCARITTSTWYFDVWGAGTTVTVSSGGGGSGGGGSGGGGSDIKMTQSPSSMYASLGERVTITCKASQDINSYLSWFQQKPGKSPKTLIYRANRLVDGVPSRFSGSGSGQDYSLTISSLEYEDMGIYYCLQYDEFPYTFGGGTKLEIKEPKSPDKTHTCPPCPAPPVAGPSVFLFPPKPKDTLMIARTPEVTCVVVDVSHEDPEVKFNWYVDGVEVHNAKTKPREEQYNSTYRVVSVLTVLHQDWLNGKEYKCKVSNKALPAPIEKTISKAKGQPREPQVYTLPPSRDELTKNQVSLTCLVKGFYPSDIAVEWESNGQPENNYKTTPPVLDSDGSFFLYSKLTVDKSRWQQGNVFSCSVMHEALHNHYTQKSLSLSPGKIYIWAPLAGTCGVLLLSLVITLYCKRGRKKLLYIFKQPFMRPVQTTQEEDGCSCRFPEEEEGGCELRVKFSRSADAPAYQQGQNQLYNELNLGRREEYDVLDKRRGRDPEMGGKPRRKNPQEGLYNELQKDKMAEAYSEIGMKGERRRGKGHDGLYQGLSTATKDTYDALHMQALPPR | –
≥ 20% | ≥ 20% | ≥ 1500 pg/mL | D10-v5 scCAR (other) QVQLKESGPGLVAPSQTLSITCTVSGFSLTSYGVHWVRQPPGKGLEWLGVIWAGGFTNYNSALKSRLSISKDNSKSQVLLKMTSLQTDDTAMYYCARRGSSYSMDYWGQGTSVTVSSGGGGSGGGGSGGGGSEIVLSQSPAITAASLGQKVTITCSASSNVSYIHWYQQRSGTSPRPWIYEISKLASGVPVRFSGSGSGTSYSLTISSMEAEDAAIYYCQQWNYPLITFGSGTKLEIQEPKSPDKTHTCPPCPAPPVAGPSVFLFPPKPKDTLMIARTPEVTCVVVDVSHEDPEVKFNWYVDGVEVHNAKTKPREEQYNSTYRVVSVLTVLHQDWLNGKEYKCKVSNKALPAPIEKTISKAKGQPREPQVYTLPPSRDELTKNQVSLTCLVKGFYPSDIAVEWESNGQPENNYKTTPPVLDSDGSFFLYSKLTVDKSRWQQGNVFSCSVMHEALHNHYTQKSLSLSPGKIYIWAPLAGTCGVLLLSLVITLYCKRGRKKLLYIFKQPFMRPVQTTQEEDGCSCRFPEEEEGGCELRVKFSRSADAPAYQQGQNQLYNELNLGRREEYDVLDKRRGRDPEMGGKPRRKNPQEGLYNELQKDKMAEAYSEIGMKGERRRGKGHDGLYQGLSTATKDTYDALHMQALPPR | > 20%

Source: patent publication US20170283497A1 (CELLECTIS, published 2017)
